The source of these data is patent US20220389111A1 (SHANGHAI EPIMAB BIOTHERAPEUTICS, published 2022).

Assay [1] has as its target T1, mouse CD39 protein (recombinant) (mouse, UniProt P55772 38-478, limits assumed).
T1 construct: also called muCD39; recombinant purified mouse CD39 protein
T1 sequence (looked up): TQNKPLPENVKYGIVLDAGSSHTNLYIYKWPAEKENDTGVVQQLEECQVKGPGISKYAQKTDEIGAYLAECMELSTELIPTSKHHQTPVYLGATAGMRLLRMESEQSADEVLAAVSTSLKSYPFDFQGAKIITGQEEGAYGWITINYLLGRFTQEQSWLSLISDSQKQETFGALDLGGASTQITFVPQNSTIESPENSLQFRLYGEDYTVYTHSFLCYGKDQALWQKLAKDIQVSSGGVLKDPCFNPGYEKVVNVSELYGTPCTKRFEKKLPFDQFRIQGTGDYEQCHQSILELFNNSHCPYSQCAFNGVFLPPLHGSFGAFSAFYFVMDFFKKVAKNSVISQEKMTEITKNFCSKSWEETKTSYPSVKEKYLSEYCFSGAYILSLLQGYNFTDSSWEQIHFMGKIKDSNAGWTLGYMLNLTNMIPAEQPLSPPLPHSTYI
Put plainly: ELISA on coated mouse CD39 protein. On the procedure:
To determine if anti-CD39 mAbs bind to human CD39, ELISA plates were incubated overnight at 4° C. with human CD39 protein or mouse CD39 protein diluted in PBS, pH7.4 buffer at 1 μg/ml. Plates were washed four times in washing buffer (PBS containing 0.05% Tween 20), and blocked for 1 hour at 37° C. with 200 μl per well blocking buffer (1% BSA in PBS containing 0.05% Tween 20). After blocking buffer was removed, hybridoma supernatant or diluted purified Abs were added to the wells at 100 μl per well and incubated at 37° C. for 1 hour. The wells were washed four times with washing buffer, and anti-mouse HRP (for mouse anti-human CD39 Ab characterization) or anti-rat HRP (for rat anti-mouse CD39 Ab characterization) (Sigma) were 1:5000 diluted and added to the wells at 100 μl per well. The plates were incubated for 1 hour at 37° C. and washed four times in washing buffer. 100 μl of tetramethylbenzidine (TMB) chromogenic solution were added per well. Following color development, the reaction was stopped with 1N HCl, and absorbance at 450 nm was measured. The data were proceeded by GraphPad software.

The target in assay [2] is T2, mouse CD39 on CHO-K1 cells (mouse, UniProt P55772 1-510).
T2 construct: whole, on cells; also called CHOK1-muCD39
T2 sequence (looked up): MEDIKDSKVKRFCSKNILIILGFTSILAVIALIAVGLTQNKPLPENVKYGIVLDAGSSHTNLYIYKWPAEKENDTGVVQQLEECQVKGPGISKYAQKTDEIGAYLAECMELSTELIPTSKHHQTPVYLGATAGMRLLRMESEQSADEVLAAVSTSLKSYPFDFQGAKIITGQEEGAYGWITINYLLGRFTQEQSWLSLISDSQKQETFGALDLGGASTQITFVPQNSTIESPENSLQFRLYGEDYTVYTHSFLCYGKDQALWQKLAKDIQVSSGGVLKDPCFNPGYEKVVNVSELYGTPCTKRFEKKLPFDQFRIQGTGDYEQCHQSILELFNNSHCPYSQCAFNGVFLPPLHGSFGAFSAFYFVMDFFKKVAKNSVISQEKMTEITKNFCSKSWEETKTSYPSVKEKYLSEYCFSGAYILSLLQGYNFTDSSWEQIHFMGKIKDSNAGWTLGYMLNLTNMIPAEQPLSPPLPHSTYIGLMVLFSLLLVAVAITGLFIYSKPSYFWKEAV
Put plainly: FACS on CHO-K1-mouse CD39 cells. On the procedure: (§1) The ability of the purified antibodies to bind to cell membrane human CD39, cynomolgus monkey CD39, or mouse CD39 was determined by FACS analysis. CHO-K1 cells stably transfected to overexpress human CD39, cynomolgus monkey CD39, or mouse CD39 (CHO-K1-huCD39 cells, CHO-K1-cyCD39 cells, and CHOK1-muCD39 cells) were generated for use in this assay. Briefly, SK-MEL-28 melanoma cells (ATCC) or CD39 overexpressing stable CHO cell lines were resuspended in PBS containing 2% FBS (FACS buffer) and seeded at 1-5×10⁵ cells/well into U-bottomed plates. Anti-CD39 mAbs or isotype control antibodies diluted in FACS buffer were added to the wells and incubated for 1 hour at 4° C. After washing with FACS buffer, 1:1000 diluted Fluorescence-labeled secondary antibody (Life Technologies/ThermoFisher Scientific) were added and incubated for 30 min. at 4° C. Unbound secondary mAb was removed by washing with FACS buffer three times, and the samples were then read on a FACS instrument. The data were processed by GraphPad software.

For the next assay, the target named is T3, muCD39-ECD-His (mouse, UniProt P55772 38-477).
T3 construct: also called C-terminally hexahistidine-tagged murine CD39 extracellular domain
T3 chain: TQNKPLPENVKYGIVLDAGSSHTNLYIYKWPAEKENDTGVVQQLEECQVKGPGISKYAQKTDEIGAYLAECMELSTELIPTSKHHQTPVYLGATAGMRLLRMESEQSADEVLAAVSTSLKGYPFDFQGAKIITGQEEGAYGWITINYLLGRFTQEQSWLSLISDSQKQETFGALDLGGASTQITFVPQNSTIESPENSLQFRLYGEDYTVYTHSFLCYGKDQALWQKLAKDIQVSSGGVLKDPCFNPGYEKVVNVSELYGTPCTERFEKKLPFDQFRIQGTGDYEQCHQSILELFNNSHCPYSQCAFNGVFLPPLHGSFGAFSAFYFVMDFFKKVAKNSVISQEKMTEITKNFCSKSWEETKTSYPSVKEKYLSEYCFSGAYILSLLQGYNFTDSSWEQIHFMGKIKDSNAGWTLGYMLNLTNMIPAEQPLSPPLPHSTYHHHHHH
Briefly: SPR (Biacore T200), antibody captured, antigen in solution. The procedure: (§2) The binding kinetics of purified antibodies was determined by surface plasmon resonance-based measurements using a Biacore T200 instrument (GE Healthcare). Briefly, goat anti-mouse IgG Fc polyclonal antibody (Genway) was directly immobilized across a biosensor chip, and antibody samples were injected over reaction matrices at a flow rate of 5 μl/min. The association and dissociation rate constants, kₒₙ (M⁻¹s⁻¹) and koff(s⁻¹), respectively, were determined by making kinetic binding measurements of anti-CD39 antibody capture at five different concentrations of a recombinant human or mouse CD39 target protein (huCD39-ECD-His or muCD39-ECD-His). The equilibrium dissociation constant KD (M) of the reaction between antibodies and related target proteins was then calculated from the kinetic rate constants using the formula: KD=koff/kₒₙ. Binding affinities for murine anti-human CD39 antibodies mAb635 and mAb638 are shown in Table 9; binding affinity for rat anti-mouse CD39 antibody mAb605 is shown in Table 10.

Assay [3] has as its target T4, human CD39 on the cell membrane (CHO-K1-human CD39 stable cell line); SK-MEL-28 melanoma cells; human CD4+ T … (human, UniProt P49961 1-510).
T4 sequence: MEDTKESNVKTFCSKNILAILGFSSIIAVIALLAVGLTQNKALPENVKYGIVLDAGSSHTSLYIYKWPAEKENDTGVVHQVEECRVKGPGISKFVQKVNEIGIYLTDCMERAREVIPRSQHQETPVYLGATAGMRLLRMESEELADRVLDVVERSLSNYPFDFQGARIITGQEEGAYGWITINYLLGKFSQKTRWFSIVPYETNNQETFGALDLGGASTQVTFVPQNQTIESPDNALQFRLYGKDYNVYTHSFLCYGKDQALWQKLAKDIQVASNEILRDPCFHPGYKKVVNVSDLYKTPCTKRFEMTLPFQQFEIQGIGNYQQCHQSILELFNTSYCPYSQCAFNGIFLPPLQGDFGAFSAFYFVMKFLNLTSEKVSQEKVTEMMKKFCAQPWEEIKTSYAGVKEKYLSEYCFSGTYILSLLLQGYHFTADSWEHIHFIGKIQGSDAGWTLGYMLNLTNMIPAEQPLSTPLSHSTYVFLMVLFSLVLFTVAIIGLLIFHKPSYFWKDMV
Put plainly: cell-based or functional assay.

The target of assay [4] is T4, human CD39 on the cell membrane …. Briefly: cell-based or functional assay. This is another data set of the same source.
Assay [5] has the same target. Briefly: FACS on CHO-K1-human CD39 cells. The procedure:
as §1

The target in assay [6] is T5, huCD39-ECD-His (human, UniProt P49961 38-478).
T5 construct: also called C-terminally hexahistidine-tagged human CD39 extracellular domain
T5 sequence: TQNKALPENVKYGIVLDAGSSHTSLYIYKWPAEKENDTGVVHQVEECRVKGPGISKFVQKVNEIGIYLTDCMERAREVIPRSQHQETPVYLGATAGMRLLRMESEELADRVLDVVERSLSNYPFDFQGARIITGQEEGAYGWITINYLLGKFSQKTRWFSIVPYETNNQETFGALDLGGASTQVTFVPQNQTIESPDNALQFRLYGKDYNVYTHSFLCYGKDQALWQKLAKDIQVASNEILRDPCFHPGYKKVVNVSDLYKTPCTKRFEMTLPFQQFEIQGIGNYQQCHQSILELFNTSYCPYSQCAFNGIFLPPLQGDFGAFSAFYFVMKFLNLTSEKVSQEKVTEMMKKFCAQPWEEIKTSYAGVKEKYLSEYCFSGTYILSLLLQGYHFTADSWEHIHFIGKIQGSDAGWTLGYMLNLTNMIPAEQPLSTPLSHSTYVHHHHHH
Briefly: SPR (Biacore T200), antibody captured by anti-mouse IgG Fc, antigen in solution. On the procedure: as §2

Assay [7] concerns the target T5, huCD39-ECD-His. Put plainly: BLI (Octet RED96), antibody captured on AMC biosensor, antigen in solution. The procedure: Anti-CD39 antibodies were characterized for affinities and binding kinetics using the Octet®RED96 biolayer interferometry system (Pall FortéBio LLC). Purified anti-CD39 antibodies were captured by Anti-Mouse IgG Fc Capture (AMC) biosensors or Anti-Human IgG Fc Capture (AHC) biosensors at a concentration of 100 nM for 30 seconds. Biosensors were then dipped into running buffer (1X pH7.2 PBS, 0.05% Tween 20, 0.1% BSA) for 60 seconds to check baseline. Binding was measured by dipping sensors into purified recombinant human CD39 protein, 3-fold serial diluted from 200 nM, for 120 seconds. Dissociation was followed by dipping sensors into running buffer for 600 seconds. The association and dissociation curves were fitted to a 1:1 Langmuir binding model using Fortebio Data Analysis software (Pall FortéBio LLC).

Assay [8] has as its target T6, cynomolgus monkey CD39 on CHO-K1 cells (cynomolgus monkey, UniProt A0A7N9DGH8 1-510).
T6 construct: whole, on cells; also called CHO-K1-cyCD39; CHO-K1-cyno CD39
T6 sequence: T4 sequence with V47I, F94Y, V221I, I230T, I329V, K368N, A391S, F489V, T490I
Put plainly: FACS on CHO-K1-cyno CD39 cells. The procedure: as §1

Residue numbers refer to the chain shown, from its start.

B1: mAb605 (antibody, V domains shown)
VH: EVQLVESGGGLVQPGRSLKLSCAASGFTFSDNYLAWVRQAPEKGLEWVASISFEGISTYYGDSVKGRFTISKDNARRTLYLQMNSLRSEDTATYYCARRSYGSRAMDAWGQGTSVTVSS
VL: DVVMTQTPVSLPVGLGGQASISCRSSQSLVHSNGNTYLSWYLKRPGQSPQLLIYRVSSRFSGVPDRFSGSGSGTDFTLKISKVVPGDLGHYYCLQTTQYPYTFGAGTKLELK
notes: rat anti-mouse CD39 hybridoma mAb, IgG2a, κ
As to B1, the EC50 worked out at 90 pM in assay [1] and 2070 pM in assay [2]. Further, the affinity in the assay with muCD39-ECD-His, expressed as Kd, was 389 pM. Also, in the assay with muCD39-ECD-His, the koff came to 0.000109 s⁻¹.

B2: mAb638 (antibody, V domains shown)
VH: QVQLQQPGTELVKPGASVKLSCKASGYTFTSFWMHWVKQRPGQGLEWIGNINPRNGATKYNEKFRSKVTLTADKTSSTAYMHLSSLTSEDSAVYYCAREDYDEIYYAMDSWGQGTSVTVSS
VL: QNVLTQSPAIMSASPGEKVTMTCSASSSVIYMYWFQQKPGSSPRVLIYDTSNLASGVPARFSGSGSGTSYSLTISRMEAEDAATYYCQQWSTYPLTFGAGTKLELK
notes: mouse anti-human CD39 hybridoma mAb, IgG1, κ
Regarding B2, in [3], the “IC50 (read off the curve), cell-surface hCD39 ATPase activity” value was about 400 pM. Also, the “IC50 (read off the curve), cell-surface huCD39 ATPase activity” value in assay [4] was about 400 pM. Further, the results for the concentration for a half-maximal effect (EC50) in [5] and in assay [8] were 3340 pM and 19200 pM, respectively. The figures for the dissociation constant Kd with huCD39-ECD-His [6] and with huCD39-ECD-His [7] were 203 pM and 2270 pM, respectively. Also, the koff with huCD39-ECD-His [6] was 0.000117 s⁻¹; with huCD39-ECD-His [7], 0.000426 s⁻¹. Besides, the on-rate (kon) in the assay with huCD39-ECD-His [6] is 574000 M⁻¹ s⁻¹; with huCD39-ECD-His [7], 188000 M⁻¹ s⁻¹.
